The target of one experiment is T1, human PD-L1 on cells (human, UniProt Q9NZQ7 19-290).
T1 construct: whole, on cells; Overexpressed on CHO cells or present on HCC827 tumor cells; the cell is named under assay; also called human PD-L1-CHO cells; PD-L1 protein on HCC827 cells
Description: flow cytometry on HCC827 cells. (In general: A flow cytometer gives signals particle by particle.)

For the next experiment, the target named is T2, mouse PD-L1 on cells (mouse, UniProt Q9EP73 19-290).
T2 construct: whole, on cells; also called mouse PD-L1-CHO cells
T2 sequence (Q9EP73 19-290): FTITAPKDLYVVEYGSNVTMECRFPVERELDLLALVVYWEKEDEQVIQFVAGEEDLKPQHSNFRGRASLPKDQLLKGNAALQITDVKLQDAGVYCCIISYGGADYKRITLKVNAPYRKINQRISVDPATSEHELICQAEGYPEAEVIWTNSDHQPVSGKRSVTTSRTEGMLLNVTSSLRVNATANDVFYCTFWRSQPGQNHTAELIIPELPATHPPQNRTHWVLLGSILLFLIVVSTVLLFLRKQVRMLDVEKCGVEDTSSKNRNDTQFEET
Description: flow cytometry on mouse PD-L1-CHO cells.

Experiment [1] has as its target T3, B7-DC protein (Sino Biological, 10292-H08H-B) (UniProt Q9BQ51 20-220).
T3 construct: Bought protein
T3 sequence (looked up): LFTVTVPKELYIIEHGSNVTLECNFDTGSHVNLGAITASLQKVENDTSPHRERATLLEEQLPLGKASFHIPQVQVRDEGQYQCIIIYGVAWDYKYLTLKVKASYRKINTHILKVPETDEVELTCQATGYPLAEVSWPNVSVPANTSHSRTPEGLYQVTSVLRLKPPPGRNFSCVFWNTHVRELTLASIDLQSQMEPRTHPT
The experiment in a line: ELISA, protein coated at 2 ug/mL; legend: N/A: No binding activity detected. The procedure:
(§1) The specific procedures were as follows:
(§2) One day before the experiment, 30 μL of protein dilutions with a final concentration of 2 μg/mL (B7-H1 (i.e., PD-L1), B7-H2, B7-H3, B7-H4, and B7-DC (all proteins were purchased from Sino Biological Inc., catalog numbers 10084-HNAH, 11559-H08H, 11188-H08H, 10738-H08H, and 10292-H08H-B, respectively)) were added to the ELISA plates and the plates were incubated overnight at 4° C. The next day, the ELISA plate was rinsed three times with PBST, then blocked with 150 μL of PBS containing 5% skim milk powder at room temperature for 2 hours. […] The plates were washed three times with PBST, and 30 μL of 1:7000 diluted anti-human IgG Fc-HRP secondary antibody was added per well, followed by incubation at room temperature for 30 minutes. After washing the plate six times with PBST, TMB was added for color development, and the reaction was terminated by adding 2M HCl. The absorbance was read at a wavelength of 450 nm using a microplate reader (Molecular Devices, SpecterMax 190).

Experiment [2] deals with T4, B7-H4 protein (Sino Biological, 10738-H08H) (UniProt Q7Z7D3 25-258).
T4 construct: Bought protein
T4 sequence (looked up): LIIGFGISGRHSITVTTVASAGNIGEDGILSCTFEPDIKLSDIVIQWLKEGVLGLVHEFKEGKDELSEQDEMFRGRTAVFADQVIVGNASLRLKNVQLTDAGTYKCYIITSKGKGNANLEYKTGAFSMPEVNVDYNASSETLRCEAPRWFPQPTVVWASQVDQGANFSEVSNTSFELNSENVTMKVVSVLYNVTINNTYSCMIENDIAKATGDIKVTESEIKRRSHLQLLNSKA
Described as above. The procedure: as §1, §2

Experiment [3] concerns the target T5, B7-H2 protein (Sino Biological, 11559-H08H) (UniProt O75144 19-258).
T5 construct: Bought protein
T5 sequence (looked up): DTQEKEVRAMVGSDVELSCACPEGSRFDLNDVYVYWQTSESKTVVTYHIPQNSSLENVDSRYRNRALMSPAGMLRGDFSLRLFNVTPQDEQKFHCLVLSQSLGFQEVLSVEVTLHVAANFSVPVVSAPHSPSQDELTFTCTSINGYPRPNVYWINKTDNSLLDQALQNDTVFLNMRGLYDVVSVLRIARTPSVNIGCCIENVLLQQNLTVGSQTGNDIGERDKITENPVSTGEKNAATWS
The experiment is described as above. The procedure: as §1, §2

For experiment [4], the target named is T6, B7-H3 protein (Sino Biological, 11188-H08H) (UniProt Q5ZPR3 29-461).
T6 construct: Bought protein
T6 sequence (looked up): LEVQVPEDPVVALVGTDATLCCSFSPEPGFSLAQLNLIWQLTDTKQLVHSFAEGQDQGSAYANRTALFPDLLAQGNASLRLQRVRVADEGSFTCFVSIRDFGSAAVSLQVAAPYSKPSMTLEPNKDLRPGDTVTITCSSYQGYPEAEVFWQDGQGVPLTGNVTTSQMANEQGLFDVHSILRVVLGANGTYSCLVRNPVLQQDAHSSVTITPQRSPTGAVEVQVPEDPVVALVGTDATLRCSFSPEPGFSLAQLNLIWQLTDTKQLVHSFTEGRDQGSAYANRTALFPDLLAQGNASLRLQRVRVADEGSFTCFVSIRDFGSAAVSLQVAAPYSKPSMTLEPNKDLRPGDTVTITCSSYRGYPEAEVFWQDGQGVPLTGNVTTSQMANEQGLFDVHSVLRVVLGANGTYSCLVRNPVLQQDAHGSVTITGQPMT
The description is as above. The procedure:
as §1, §2

T1 sequence (Q9NZQ7 19-290): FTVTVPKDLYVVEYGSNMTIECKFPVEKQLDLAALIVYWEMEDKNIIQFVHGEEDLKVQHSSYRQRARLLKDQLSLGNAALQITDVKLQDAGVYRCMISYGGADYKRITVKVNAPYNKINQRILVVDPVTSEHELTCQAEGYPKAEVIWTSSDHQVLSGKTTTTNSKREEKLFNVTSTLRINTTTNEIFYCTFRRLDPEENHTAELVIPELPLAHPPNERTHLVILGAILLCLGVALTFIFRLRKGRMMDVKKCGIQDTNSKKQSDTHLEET
Description for human PD-L1 on cells: The cells were resuspended in the prepared FACS buffer and counted, and the cell suspension density was adjusted to 2×10⁶ cells/mL. 100 μL of HCC827 cells were added per well to 96-well plates. The plates were centrifuged at 300 g to remove the supernatant. […] The incubated cell mixture was centrifuged at 300 g to remove the supernatant, 200 μL of FACS buffer was added to corresponding wells, and the cells were resuspended with a multichannel pipette. The centrifugation, resuspension and washing steps were repeated twice, and the cells were centrifuged at 300 g to remove the supernatant. […] The incubated cell mixture was centrifuged at 300 g to remove the supernatant, 200 μL of FACS buffer was added to corresponding wells, and the cells were resuspended with a multichannel pipette. The centrifugation, resuspension and washing steps were repeated twice, and the cells were centrifuged at 300 g to remove the supernatant. The PE-labeled anti-biotin flow antibody (Abcam) was added, and the cells were pipetted to mix with a multichannel pipette and incubated at 4° C. for 30 minutes. The cells were centrifuged at 300 g to remove the supernatant, and FACS buffer was added to resuspend the cells. The centrifugation, resuspension and washing steps were repeated twice, and 200 μL of FACS buffer was added per well to resuspend the cells.
Description for mouse PD-L1 on cells: The cells were resuspended with the prepared FACS buffer and counted, and the cell suspension density was adjusted to 2×10⁶ cells/mL. 100 μL of mouse PD-L1-CHO cells and cynomolgus monkey PD-L1-CHO cells were added per well to the 96-well plates, respectively. The plates were centrifuged at 300 g to remove the supernatant. […] The incubated cell mixture was centrifuged at 300 g to remove the supernatant, 200 μL of FACS buffer was added to corresponding wells, and the cells were resuspended with a multichannel pipette. The centrifugation, resuspension and washing steps were repeated twice, and the cells were centrifuged at 300 g to remove the supernatant. The PE-labeled anti-human IgG Fc flow antibody (Abcam, ab98596) was added, and the cells were pipetted to mix with a multichannel pipette and incubated at 4° C. for 30 minutes. The cells were centrifuged at 300 g to remove the supernatant, and FACS buffer was added to resuspend the cells. The centrifugation, resuspension and washing steps were repeated twice, and 200 μL of FACS buffer was added per well to resuspend the cells.

B1: m18 (antibody, human IgG1, V domains shown)
VH: EVQLVESGGGLVQPGGSLRLSCAASRTDSNIHGMHWYRQAPGKGREWVGMIFIDGNTIVTDSVKGRFTISRDNAKNTLYLQMNTLRAEDTAVYYCAADSRGYGRAWGQGTTVTVSS
notes: also called antibody m18; anti-PD-L1 antibody m18
Take B1: the binding result in the experiment with human PD-L1 on cells was “binds”; with mouse PD-L1 on cells, “binds”; in experiment [1] it was “no binding”; in experiment [2], “no binding”; in experiment [3] it was “no binding”; in experiment [4] it was “no binding”.

For the origin of these results see patent US20260028402A1 (SANYOU BIOPHARMACEUTICALS, published 2026).
